Reference: publication PMC10954480

Target: 6x His-tagged RecB nuclease domain (RecB^928–1180) (Escherichia coli) (UniProt P08394)
Test: pull-down

Sequence of 6x His-tagged RecB nuclease domain (RecB^928–1180) (Escherichia coli) (P08394 928-1180): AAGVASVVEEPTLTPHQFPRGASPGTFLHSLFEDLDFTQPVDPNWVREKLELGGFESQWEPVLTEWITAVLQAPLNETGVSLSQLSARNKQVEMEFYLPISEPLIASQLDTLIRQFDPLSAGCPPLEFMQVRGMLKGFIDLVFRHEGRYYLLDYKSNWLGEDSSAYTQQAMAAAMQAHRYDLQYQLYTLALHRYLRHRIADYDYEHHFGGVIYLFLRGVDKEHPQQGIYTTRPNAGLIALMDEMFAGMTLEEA

- stoichiometry N (moles RecB^hCD per mole RecB^n): 0.95
Substance: RecB^1–927CD, truncated RecBCD enzyme lacking the RecB nuclease domain, P08394 1-927; P07648 1-1122; P04993 1-608
